# B1: purified full-length recombinant mouse tenascin-W (C-terminal 6xHis-tag, secreted from HEK 293 cells) (ligand)
# chain: TPESPGCSNKEQQVTVSHTYKIDVPKSALVQVETDPQSLSDDGTSLLAPGEDGEEQNIIFRHNIRLQTPQKNCDLADSVQDLLARMKKLEEEMAELKEQCNTNRCCQGAADLSRHCSGHGTFLPETCSCHCDQGWEGADCDQPTCPGACNGHGRCVDGQCVCDAPYVGVDCAYAACPQDCSGHGVCVQGVCQCHEDFTAEDCSEQRCPGDCSGNGFCDTGECYCEMGFTGPDCSQVVAPQGLQLLKSTENSLLVSWEPSSEVDYYLLSYYPLGKEQATKQVRVPKEQHTYDITGLLPGTKYIVTLRNVKKDISSSPQHLLATTDLAVLGTAWVNEETETSLDVEWENPLTEVDYYKLRYGPLTGQEVTEVTVPKSRDPKSRYDITGLQPGTEYKITVVPIRGDLEGKPILLNGRTEIDGPTNVVTNQVTEDTASVSWDPVRADIDKYVVRYIAPDGETKEKAVPKDQSSTVLTGLKPGEAYKVFVWAERGNQGSKKADTKALTEIDSPENLVTDRVTENSLSVSWDPVEADIDRYVVSYTSVDGETKQVPVKKDQRSTVLTGLSPGVEYKVYVWAEKGDRESKKANTKAPTDIDSPKNLVTDQVTENTLSVSWDPVQANIDRYMVSYTSADGETREVPVPKEKSSTVLTGLRPGVEYKVHVWAQKGTQESRKANTKAPTDIDGPKNLVTDQVTETTLSVSWDPVEADIDRYMVRYTSPDGETKEVPVSKDKSSTVLRGLRPGVEYKVDVWAQKGAQDSRKANTKAPTDIDSPKNLVTEQVAESTATVSWDPVEADIDRYVVRYTSADGETREIPVRKEKSSTVLTGLRPGVEYTVQVWAQKGARESKKAKTKAPTEIDSPKNLVTNRVTENTATISWDPVRANIDRYMVRYTSADGETKEIPVSKDQSNTILTGLKPGMEYTIHVWAQKGARESKKADTKALTEIDPPRNLRPFGVTHSGGVLTWLPPSAQIDGYILTYQFPNGTVKGVELPRGQQRFELQDLEQGVTYPVSLVAFKGNQRSRTVSTTLSTVDARFPHPSDCSQVQQNTNAASGLYTIYLNGDASRPMQVYCDMDTDGGGWIVFQRRNTGQLDFFKRWRSYVEGFGDPMKEFWLGLDKLHNLTTGTTTRYEVRADLQTFNESAYAVYDFFQVASSKERYKLSVGKYRGTAGDALTYHNGWKFTTFDRDSDIALSNCALTHHGGWWYKNCHLANPNGKYGETKHSEGVNWEPWKGHEFSIPYVELKIRPFGYSRDRFSGRKKRSIGKARMFHHHHHH
# notes: also called full length mouse tenascin-W protein; purified tenascin-W
# Biological target: T1, alpha9 integrin on transfected SW480 colon carcinoma cells (UniProt Q13797 30-1035; P05556 21-798)
# T1 construct: whole, on cells; also called α9 integrin; alpha9 beta1 integrin
# T1 sequence (Q13797 30-1035, chain 1 of 2): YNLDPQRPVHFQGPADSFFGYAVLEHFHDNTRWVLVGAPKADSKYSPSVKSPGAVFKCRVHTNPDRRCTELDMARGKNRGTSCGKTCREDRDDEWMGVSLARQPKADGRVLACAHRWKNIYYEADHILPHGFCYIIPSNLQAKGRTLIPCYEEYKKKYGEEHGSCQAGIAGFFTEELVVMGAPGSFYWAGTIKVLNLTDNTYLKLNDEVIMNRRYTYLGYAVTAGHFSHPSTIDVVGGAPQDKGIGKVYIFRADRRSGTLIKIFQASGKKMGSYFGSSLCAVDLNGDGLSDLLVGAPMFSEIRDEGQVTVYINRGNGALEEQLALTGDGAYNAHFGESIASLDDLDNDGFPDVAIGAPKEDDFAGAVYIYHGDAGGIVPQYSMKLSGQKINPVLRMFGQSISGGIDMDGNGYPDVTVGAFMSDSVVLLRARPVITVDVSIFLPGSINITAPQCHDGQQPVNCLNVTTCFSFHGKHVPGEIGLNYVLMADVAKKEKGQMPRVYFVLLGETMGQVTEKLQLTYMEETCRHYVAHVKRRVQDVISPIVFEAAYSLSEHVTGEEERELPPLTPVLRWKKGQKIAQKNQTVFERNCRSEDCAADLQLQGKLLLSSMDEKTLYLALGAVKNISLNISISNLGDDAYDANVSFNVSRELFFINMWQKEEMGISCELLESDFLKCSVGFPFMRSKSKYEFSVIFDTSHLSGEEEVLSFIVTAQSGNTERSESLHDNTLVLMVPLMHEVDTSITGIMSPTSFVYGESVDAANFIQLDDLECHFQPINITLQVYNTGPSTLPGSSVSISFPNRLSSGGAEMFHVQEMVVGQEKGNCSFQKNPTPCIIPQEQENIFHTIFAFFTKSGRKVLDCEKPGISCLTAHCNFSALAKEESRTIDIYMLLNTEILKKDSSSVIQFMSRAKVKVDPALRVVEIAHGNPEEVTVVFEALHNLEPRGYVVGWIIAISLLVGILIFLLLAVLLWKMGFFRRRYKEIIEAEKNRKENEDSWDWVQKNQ
# T1 sequence (P05556 21-798, chain 2 of 2): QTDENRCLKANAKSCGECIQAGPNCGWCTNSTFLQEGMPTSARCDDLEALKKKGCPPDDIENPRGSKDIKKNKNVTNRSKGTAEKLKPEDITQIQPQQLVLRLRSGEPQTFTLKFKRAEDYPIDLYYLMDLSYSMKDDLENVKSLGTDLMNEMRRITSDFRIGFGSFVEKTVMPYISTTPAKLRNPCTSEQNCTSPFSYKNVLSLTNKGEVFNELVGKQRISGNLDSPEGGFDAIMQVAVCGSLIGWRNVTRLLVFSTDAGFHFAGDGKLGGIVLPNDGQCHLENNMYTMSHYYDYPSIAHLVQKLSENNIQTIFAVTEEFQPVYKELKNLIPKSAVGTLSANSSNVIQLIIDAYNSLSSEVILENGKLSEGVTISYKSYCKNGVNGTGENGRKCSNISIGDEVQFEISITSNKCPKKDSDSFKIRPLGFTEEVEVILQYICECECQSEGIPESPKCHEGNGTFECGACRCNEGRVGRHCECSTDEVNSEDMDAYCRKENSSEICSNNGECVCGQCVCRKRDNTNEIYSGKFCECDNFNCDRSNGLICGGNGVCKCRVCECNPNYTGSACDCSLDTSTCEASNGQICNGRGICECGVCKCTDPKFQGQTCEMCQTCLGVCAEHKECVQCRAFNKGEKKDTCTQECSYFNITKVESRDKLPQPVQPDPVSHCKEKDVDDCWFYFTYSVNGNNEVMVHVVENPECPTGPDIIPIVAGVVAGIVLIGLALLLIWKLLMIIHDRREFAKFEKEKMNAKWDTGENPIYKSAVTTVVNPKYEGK
# Test: adhesion of transfected SW480 cells to wells coated with tenascin-W
# Source text: IDG tripeptide motifs have been reported to be the recognition sequence for alpha9 beta1 integrin (Yokosaki et al., 1998). Since mouse tenascin-W contains three IDG motifs we investigated whether α9 integrin could be the receptor for tenascin-W. We plated SW480 colon carcinoma cells transfected either with an empty vector or with the vector containing the cDNA for α9 integrin (Yokosaki et al. J Biol. Chem. 1996 Sep. 27;271(39):24144-50) on tenascin-W coated wells.
binder,measurement,value
B1,binding result,no binding

# — US20050202430A1 (Novartis, published 2005)
